Data as given in PMC3285215, “The TAL Effector PthA4 Interacts with Nuclear Factors Involved in RNA-Dependent Processes Including a HMG Protein That Selectively Binds Poly(U) RNA”.

Experiments:
CsHMG [1] = biological target: T1, CsHMG (Citrus sinensis, UniProt G9I829 1-165); test: EMSA; 0.5 and 1.0 ug protein; conditions: protein: recombinant; tags: 6xHis; label: 5' 32P (direct EMSA)
CsHMGΔNΔC [2] = biological target: T2, CsHMGΔNΔC (Citrus sinensis, UniProt G9I829 56-125); test: competition; 1-30x vs poly(U) probe; conditions: protein: recombinant; label: 5' 32P (direct EMSA)
T2 sequence (G9I829 entry or part of it mutant): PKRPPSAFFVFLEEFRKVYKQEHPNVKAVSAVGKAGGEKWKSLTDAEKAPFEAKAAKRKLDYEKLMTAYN

PthA4 RD = PthA4 RD (Xanthomonas citri, UniProt A0AAI8ETU3 289-885); test: EMSA; 5 mM Mg2+; […], pH 7.5 ([…], pH 7.5, 20 min; conditions: protein: recombinant; label: 5' 32P
PthA4 = PthA4 (Xanthomonas citri, UniProt A0AAI8ETU3 1-1163); test: EMSA; 5 mM Mg2+; […], pH 7.5 ([…], pH 7.5, 20 min; conditions: protein: recombinant; tags: 6xHis; label: 5' 32P
PthA4;CsHMG = PthA4;CsHMG (Xanthomonas citri;Citrus sinensis, UniProt A0AAI8ETU3;G9I829 1-1163;1-165, |); test: EMSA; ternary complex suggested by higher MW bands; […], pH 7.5 ([…], pH 7.5, 20 min; conditions: protein: recombinant;recombinant; tags: 6xHis;6xHis; label: 5' 32P
CsHMG [3] = biological target: T1, CsHMG; test: competition; 1-30x cold poly(U); conditions: protein: recombinant; tags: 6xHis; label: 5' 32P
CsHMGΔNΔC [4] = biological target: T2, CsHMGΔNΔC; test: EMSA; conditions: protein: recombinant; label: 5' 32P
CsHMGΔC = CsHMGΔC (Citrus sinensis, UniProt G9I829 1-125); test: EMSA; conditions: protein: recombinant; label: 5' 32P
CsHMGΔC, sequence (G9I829 entry or part of it mutant): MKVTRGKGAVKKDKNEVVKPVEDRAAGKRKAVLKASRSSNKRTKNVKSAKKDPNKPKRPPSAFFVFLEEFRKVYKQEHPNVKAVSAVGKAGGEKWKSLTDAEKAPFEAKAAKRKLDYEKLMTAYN

CsHMGΔN = CsHMGΔN (Citrus sinensis, UniProt G9I829 56-165); test: EMSA; conditions: protein: recombinant; label: 5' 32P
CsHMGΔN, sequence (G9I829 entry or part of it mutant): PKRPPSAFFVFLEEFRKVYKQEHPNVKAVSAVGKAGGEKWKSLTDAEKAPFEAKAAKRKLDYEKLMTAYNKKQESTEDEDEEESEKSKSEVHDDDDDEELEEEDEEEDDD

UUAUUAUUUAUUUAUUUAUU (ssRNA) [AU-rich RNA]: no binding (CsHMG [1]); no binding (CsHMGΔNΔC [2]).

UUUUUUUUUUUUUUUUUUUU (ssRNA) [poly(U) U-20]: binds (PthA4 RD); binds (PthA4); binds (PthA4;CsHMG). UUUUUUUUUUUUUUUUUUUU (ssRNA) [poly(U) U-20]: binds (CsHMG [3]); binds (CsHMGΔNΔC [4]); binds (CsHMGΔC). UUUUUUUUUUUUUUUUUUUU (ssRNA) [poly(U) U-20]: binds (CsHMGΔN).
